One test deals with T1, LexA-MB67 (bacterial, UniProt P0A7C2 1-202; Q14994 76-348, limits assumed).
T1 construct: Made by PCR, 'analogous' to LexA-RXR and LexA-TR; also called Lex fusion MB67
T1 sequence (looked up): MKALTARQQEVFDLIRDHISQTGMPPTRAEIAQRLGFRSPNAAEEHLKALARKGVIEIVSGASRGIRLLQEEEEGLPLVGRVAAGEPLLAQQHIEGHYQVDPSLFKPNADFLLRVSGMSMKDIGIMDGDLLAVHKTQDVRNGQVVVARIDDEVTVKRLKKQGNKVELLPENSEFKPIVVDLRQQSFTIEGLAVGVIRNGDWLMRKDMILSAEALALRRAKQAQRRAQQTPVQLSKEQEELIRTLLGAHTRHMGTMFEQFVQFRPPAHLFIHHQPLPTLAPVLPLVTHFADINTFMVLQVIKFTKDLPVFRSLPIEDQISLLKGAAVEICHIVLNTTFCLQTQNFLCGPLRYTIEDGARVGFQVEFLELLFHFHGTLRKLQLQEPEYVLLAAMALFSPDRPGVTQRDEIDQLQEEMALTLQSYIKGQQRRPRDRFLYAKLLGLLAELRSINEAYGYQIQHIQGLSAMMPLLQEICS
In words: yeast interaction trap, X-gal plate; W = white (no interaction). On the procedure:
(§1) Interactions of the RIP clones with other superfamily members, including RAR, TR, the glucocorticoid receptor (GR), and MB67, an orphan isolated in this lab (Baes et al., Mol. Cell. Biol. 14:1544–1552, 1994) were also tested using a series of appropriate LexA fusions. In particular, the experiments shown in Table 1 were carried out as follows. Yeast transformants containing a lacZ reporter gene under the control of LexA binding sites and the indicated B42- and Lex-fusion protein expression vectors were transferred onto galactose-Ura⁻His⁻Trp⁻ plates containing X-gal and incubated for two days. Relative levels of β-galactosidase activity were estimated and are depicted as follows: B, blue (strong interaction); LB, light blue (weak interaction); W, white (no interaction); nt, not tested. At least three separate colonies were tested on the same plate for interaction. To test the effects of ligands, 100 µl of a 10^-6M solution of the appropriate ligand was spread onto plates just before inoculation of cells (9-cis-RA for RXR, T3 for TR, and all-trans-RA for RAR). For B42-PPAR, the plasmid isolated from the screening was used. Both full length and truncated RAR fusions to LexA were tested with identical results for all the B42 fusions except B42-110, which was tested only with the full length fusion.

In another test the target is T2, LexA-TR (bacterial; rat, UniProt P0A7C2 1-202; P18113 170-461, limits assumed).
T2 construct: also called Lex fusion TR
T2 sequence (looked up): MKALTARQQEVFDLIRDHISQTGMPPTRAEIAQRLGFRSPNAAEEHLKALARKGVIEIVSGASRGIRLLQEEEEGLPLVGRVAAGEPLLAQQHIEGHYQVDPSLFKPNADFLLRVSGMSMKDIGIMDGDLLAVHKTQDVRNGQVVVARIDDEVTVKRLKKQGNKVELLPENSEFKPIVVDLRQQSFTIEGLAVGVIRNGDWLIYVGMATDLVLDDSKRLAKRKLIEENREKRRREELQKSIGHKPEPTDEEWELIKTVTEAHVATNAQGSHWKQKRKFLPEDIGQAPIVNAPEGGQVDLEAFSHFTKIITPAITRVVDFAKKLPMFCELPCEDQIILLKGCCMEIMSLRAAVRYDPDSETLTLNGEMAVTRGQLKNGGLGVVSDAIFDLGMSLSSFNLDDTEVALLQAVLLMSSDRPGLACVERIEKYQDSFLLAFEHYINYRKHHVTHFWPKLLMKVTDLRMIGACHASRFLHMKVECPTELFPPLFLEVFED
In words: yeast interaction trap, X-gal plate, with T3; W = white (no interaction). On the procedure:
as §1

Another test has as its target T3, Human RXRα protein (human, UniProt P19793 1-462, limits assumed).
T3 construct: Used in the gel shifts
T3 sequence (looked up): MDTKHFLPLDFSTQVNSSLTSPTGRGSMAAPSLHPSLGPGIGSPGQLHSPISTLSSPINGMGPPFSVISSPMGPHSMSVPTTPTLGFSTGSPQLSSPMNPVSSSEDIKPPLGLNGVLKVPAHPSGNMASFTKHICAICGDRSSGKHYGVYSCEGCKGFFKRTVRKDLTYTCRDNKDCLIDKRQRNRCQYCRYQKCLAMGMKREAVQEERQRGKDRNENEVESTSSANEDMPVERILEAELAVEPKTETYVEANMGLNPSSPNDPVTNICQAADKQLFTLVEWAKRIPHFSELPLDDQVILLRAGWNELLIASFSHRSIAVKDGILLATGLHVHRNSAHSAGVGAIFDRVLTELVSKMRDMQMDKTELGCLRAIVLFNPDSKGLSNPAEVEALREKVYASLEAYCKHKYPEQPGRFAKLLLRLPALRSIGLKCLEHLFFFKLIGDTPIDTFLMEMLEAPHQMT
In words: gel shift of in vitro translated RIP with E. coli-expressed RXRα on labeled βRARE; the complex with RXR is seen on DNA. On the procedure: The binding of the RIP14-2 isoform to this element was weaker than that of RIP14-1 when similar amounts of RIP14 proteins were used. […] Several other DNA elements were tested in the gel shift assay, including the retinoic acid response element from the promoter of the human RARβ2 isoform (βRARE) (de The et al., Nature 343:177–180, 1990). In the presence of RXR, the βRARE was bound by both the RIP14 isoforms and RIP15 (FIG. 8, panel B). Again, the binding of the RIP14-2/RXR heterodimer was weaker than the RIP14-1/RXR heterodimer when a similar amount of RIP14 proteins were used (FIG. 8, panel B, lanes 10 and 14).
RIP14 and RIP15 proteins were produced by in vitro translation (Promega TNT, Madison, Wis.) using expression vectors containing the RIP genes following a T7 promoter. To generate full length RIP14-2 constructs, fragments from RIP14-1 clone No. 15 containing regions from the middle of the E domain to the 3' end replaced the corresponding regions of RIP14-2 Clones No. 3 or 12, respectively. Sequences were confirmed by DNA sequencing. Human RXRα protein was expressed in E. coli using a bacterial expression vector based on the bacteriophage T7 promoter (Carter et al., Mol. Cell. Biol. in press., 1994). […]
(In EMSA bound probe runs differently from free probe, usually more slowly.)

Test [1] deals with T4, LexA-RXR (bacterial; human, UniProt P0A7C2 1-202; P19793 196-462, limits assumed).
T4 construct: also called Lex fusion RXR
T4 sequence (looked up): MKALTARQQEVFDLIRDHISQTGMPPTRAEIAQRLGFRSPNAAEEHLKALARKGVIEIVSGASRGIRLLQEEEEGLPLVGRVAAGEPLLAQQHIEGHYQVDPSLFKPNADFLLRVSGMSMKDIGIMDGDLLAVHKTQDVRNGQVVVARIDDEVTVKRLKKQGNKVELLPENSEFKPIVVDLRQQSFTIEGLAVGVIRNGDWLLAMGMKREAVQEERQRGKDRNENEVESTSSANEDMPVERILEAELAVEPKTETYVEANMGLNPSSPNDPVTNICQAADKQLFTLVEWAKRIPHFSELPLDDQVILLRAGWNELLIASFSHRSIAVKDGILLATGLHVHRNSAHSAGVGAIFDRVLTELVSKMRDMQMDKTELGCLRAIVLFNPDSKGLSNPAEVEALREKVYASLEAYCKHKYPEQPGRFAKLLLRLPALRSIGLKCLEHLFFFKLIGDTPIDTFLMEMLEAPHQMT
The experiment in a line: yeast interaction trap screen; clones showing specific interaction with LexA-RXR; all six clones start at amino acid 132. As for the experimental part: (§2) From 3×10^6 primary yeast transformants, a number of β-gal expressing colonies were identified in two independent screens carried out in the presence or absence of 9-cis-RA. Since expression of the B42-cDNA fusion proteins was induced by growth on galactose, candidates obtained from each condition were tested for galactose-dependent expression of both β-gal and LEU2, in the presence or absence of 9-cis-RA, using appropriate indicator plates (see below).
(§3) Candidates showing specific interaction with LexA-RXR were sequenced across the B42 fusion junction using an appropriate vector primer, and additional sequence was determined. The deduced amino acid sequences were compared to those in the GenBank and EMBL databases using the GCG (Devereux et al., Nucleic Acids Res. 12:387–395, 1984) and BLAST programs (Altschul et al., J. Mol. Biol. 215:403–410, 1990). […] All of these clones included intact ligand binding domains, as expected from the fact that the major heterodimerization function lies within that domain. For PPAR (Issemann et al., Nature 347:645–650, 1990), three clones started at amino acid 84, just N-terminal to the DNA binding (C) domain, four others started at 91, within the C domain, and one at 170, just past the C domain. For RAR (Leroy et al., EMBO J. 10:59–69), all six clones started at amino acid 132, within the C domain.

In test [2] the target is T4, LexA-RXR. In words: yeast interaction trap screen; clones showing specific interaction with LexA-RXR; one clone starting at amino acid 170. As for the experimental part: as §2, §3

B1: B42-RIP15 (other, not shown: large carriers)
chain: EEQIRKKRIQKQQQQQPPPPSEPAASSSGRPAASPGTSEASSQGSGEGEGIQLTAAQELMIQQLVAAQLQCNKRSFSDQPKVTPWPLGADPQSRDARQQRFAHFTELAIISVQEIVDFAKQVPGFLQLGREDQIALLKASTIEIMLLQTARRYNHETECITFLKDFTYSKDDFHRAGLQVEFINPIFEFSRAMRRLGLDDAEYALLIAINIFSADRPNVQEPSRVEALQQPYVEALLSYTRIKRPQDQLRFPRMLMKLVSLRTLSSVHSEQVFALRLQDKKLPPLLSEIWDVHE
notes: Original yeast clone; Its B42 fusion junction is near the beginning of the hinge (D) domain, with no residue number stated; also called B42 fusion 15; RIP15 chimera
For B1, the binding result in the test with LexA-MB67 and in the test with LexA-TR was “no binding” throughout.

B2: RIP15 (receptor)
chain: MSSPTSSLDTPVPGNGSPQPSTSATSPTIKEEGQETDPPPGSEGSSSAYIVVILEPEDEPERKRKKGPAPKMLGHELCRVCGDKASGFHYNVLSCEGCKGFFRRSVVHGGAGRYACRGSGTCQMDAFMRRKCQLCRLRKCKEAGMREQCVLSEEQIRKKRIQKQQQQQPPPPSEPAASSSGRPAASPGTSEASSQGSGEGEGIQLTAAQELMIQQLVAAQLQCNKRSFSDQPKVTPWPLGADPQSRDARQQRFAHFTELAIISVQEIVDFAKQVPGFLQLGREDQIALLKASTIEIMLLQTARRYNHETECITFLKDFTYSKDDFHRAGLQVEFINPIFEFSRAMRRLGLDDAEYALLIAINIFSADRPNVQEPSRVEALQQPYVEALLSYTRIKRPQDQLRFPRMLMKLVSLRTLSSVHSEQVFALRLQDKKLPPLLSEIWDVHE
notes: Intact 446 amino acid protein; It was translated in vitro for gel shifts and expressed from a CDM vector in HepG2 cells
For B2, the binding result in the test with Human RXRα protein was “binds”.

B3: B42-RAR (other, mouse, UniProt P11416 132-462, looked up, not shown: large carriers)
chain: INKVTRNRCQYCRLQKCFDVGMSKESVRNDRNKKKKEAPKPECSESYTLTPEVGELIEKVRKAHQETFPALCQLGKYTTNNSSEQRVSLDIDLWDKFSELSTKCIIKTVEFAKQLPGFTTLTIADQITLLKAACLDILILRICTRYTPEQDTMTFSDGLTLNRTQMHNAGFGPLTDLVFAFANQLLPLEMDDAETGLLSAICLICGDRQDLEQPDKVDMLQEPLLEALKVYVRKRRPSRPHMFPKMLMKITDLRSISAKGAERVITLKMEIPGSMPPLIQEMLENSEGLDTLSGQSGGGTRDGGGLAPPPGSCSPSLSPSSHRSSPATQSP
notes: range 132-C-terminus; All six isolated clones start at amino acid 132; also called RARα (six clones)
Take B3: the binding result with LexA-RXR [1] is listed as “binds”.

B4: B42-PPAR clone starting at amino acid 170 (other, mouse, UniProt P23204 170-468, looked up, not shown: large carriers)
chain: AIRFGRMPRSEKAKLKAEILTCEHDLKDSETADLKSLGKRIHEAYLKNFNMNKVKARVILAGKTSNNPPFVIHDMETLCMAEKTLVAKMVANGVEDKEAEVRFFHCCQCMSVETVTELTEFAKAIPGFANLDLNDQVTLLKYGVYEAIFTMLSSLMNKDGMLIAYGNGFITREFLKNLRKPFCDIMEPKFDFAMKFNALELDDSDISLFVAAIICCGDRPGLLNIGYIEKLQEGIVHVLKLHLQSNHPDDTFLFPKLLQKMVDLRQLVTEHAQLVQVIKKTESDAALHPLLQEIYRDMY
notes: range 170-C-terminus; Only the start is stated; also called PPAR (one clone)
For B4, the binding result with LexA-RXR [2] is “binds”.

For the origin of these results see patent US7115711 (GENERAL HOSPITAL, dated 2006).
